From article PMC4864278 (The EMBO Journal, 2016)
Each block holds one binder with its values, some of them ahead of it.

Key:
[1] = target: the molecule itself; assay: SAXS; SEC in line with SAXS, SWING beamline at SOLEIL, SEC-3 300 Å Agilent column, 15°C; 2.5 mg/ml TRIM25 RBCC, 6 mg/ml TRIM32 RBCC injected
[2] = target: the molecule itself; assay: SAXS; batch SAXS, Diamond Light Source beamline B21; at least three dilutions of each construct; concentrations as in Table 2
ubiquitin = ubiquitin (bovine, UniProt P0CG53 1-76, isopeptide-linked to UBE2D1); assay: crystal structure; TRIM25 RING domain (8 mg/ml) mixed with isopeptide-linked UBE2D1-Ub (10 mg/ml) at a 1:1 molar ratio; 100 mM Tris pH 8.5, 10% PEG 20,000, 18°C; 2.34 Å; details: both partners purified

B1: TRIM32 RBCC (1–354) (domain or fragment, UniProt Q13049 1-354, looked up)
chain: MAAAAASHLNLDALREVLECPICMESFTEEQLRPKLLHCGHTICRQCLEKLLASSINGVRCPFCSKITRITSLTQLTDNLTVLKIIDTAGLSEAVGLLMCRSCGRRLPRQFCRSCGLVLCEPCREADHQPPGHCTLPVKEAAEERRRDFGEKLTRLRELMGELQRRKAALEGVSKDLQARYKAVLQEYGHEERRVQDELARSRKFFTGSLAEVEKSNSQVVEEQSYLLNIAEVQAVSRCDYFLAKIKQADVALLEETADEEEPELTASLPRELTLQDVELLKVGHVGPLQIGQAVKKPRTVNVEDSWAMEATASAASTSVTFREMDMSPEEVVASPRASPAKQRGPEAASNIQQ
- stoichiometry N [1]: 4

B2: TRIM25 RBCC (1–433) (domain or fragment, UniProt Q14258 1-433, looked up)
chain: MAELCPLAEELSCSICLEPFKEPVTTPCGHNFCGSCLNETWAVQGSPYLCPQCRAVYQARPQLHKNTVLCNVVEQFLQADLAREPPADVWTPPARASAPSPNAQVACDHCLKEAAVKTCLVCMASFCQEHLQPHFDSPAFQDHPLQPPVRDLLRRKCSQHNRLREFFCPEHSECICHICLVEHKTCSPASLSQASADLEATLRHKLTVMYSQINGASRALDDVRNRQQDVRMTANRKVEQLQQEYTEMKALLDASETTSTRKIKEEEKRVNSKFDTIYQILLKKKSEIQTLKEEIEQSLTKRDEFEFLEKASKLRGISTKPVYIPEVELNHKLIKGIHQSTIDLKNELKQCIGRLQEPTPSSGDPGEHDPASTHKSTRPVKKVSKEEKKSKKPPPVPALPSKLPTFGAPEQLVDLKQAGLEAAAKATSSHPNS
- stoichiometry N [1]: 2

B3: TRIM32 RING/B-box2 (1–140) (domain or fragment, UniProt Q13049 1-140, looked up)
chain: MAAAAASHLNLDALREVLECPICMESFTEEQLRPKLLHCGHTICRQCLEKLLASSINGVRCPFCSKITRITSLTQLTDNLTVLKIIDTAGLSEAVGLLMCRSCGRRLPRQFCRSCGLVLCEPCREADHQPPGHCTLPVKE
- stoichiometry N [2]: 2

- binding result (ubiquitin): binds
B4: TRIM25 RING domain (1–82) (domain or fragment, UniProt Q14258 1-82, looked up)
chain: MAELCPLAEELSCSICLEPFKEPVTTPCGHNFCGSCLNETWAVQGSPYLCPQCRAVYQARPQLHKNTVLCNVVEQFLQADLA
